Assays:
human BCMA = biological target: T1, human BCMA (human, UniProt Q02223 1-184); assay: flow cytometry, NCI-H929 cells
T1 construct: whole, on cells; the cell line is named under assay; also called TNFRSF17; CD269
T1 sequence (looked up): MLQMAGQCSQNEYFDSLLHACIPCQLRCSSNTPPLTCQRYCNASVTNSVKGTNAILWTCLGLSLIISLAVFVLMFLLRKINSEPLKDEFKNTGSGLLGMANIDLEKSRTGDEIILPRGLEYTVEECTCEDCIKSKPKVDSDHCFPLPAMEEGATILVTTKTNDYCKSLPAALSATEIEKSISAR

[1] = biological target: T2, biotinylated human BCMA-Fc, Avitag recombinant protein (ACRO Biosystems, #BC7-H82F0) (human, UniProt Q02223 1-54, biotinylated); assay: BLI (Octet Red96e), biotinylated BCMA-Fc on SA sensor, antibody in solution, 1:1 global fit
T2 construct: extracellular domain; Bought protein; also called human BCMA protein; recombinant human BCMA-ECD-Fc; not shown: Fc of the bought fusion protein; Avitag
T2 sequence (looked up): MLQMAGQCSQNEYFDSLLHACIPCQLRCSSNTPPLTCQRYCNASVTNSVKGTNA

[2] = biological target: T3, human 4-1BB (tumor necrosis factor receptor superfamily member 9) (human, UniProt Q07011 24-255); assay: flow cytometry (FACS) on CHO-K1/hu 4-1BB cells
T3 construct: whole, on cells; also called hu 4-1BB; CD137

[3] = biological target: T4, human PD-L1 (programmed death ligand 1) (human, UniProt Q9NZQ7 19-290); assay: flow cytometry (FACS) on CHO-K1/hPDL1 cells, Experiment 1
T4 construct: whole, on cells; also called hPDL1; CD274

[4] = biological target: T5, human CTLA4 on cells (CHO-K1/hCTLA4; HEK293/hCTLA4; 293F-hCTLA4) (human, UniProt P16410 36-223); assay: FACS, HEK293/hCTLA4 cells
T5 construct: whole, on cells

[5] = biological target: T5, human CTLA4 on cells (CHO-K1/hCTLA4; …); assay: FACS, CHO-K1/hCTLA4 cells (Test 2)
[6] = biological target: T6, human PD-L1 on cells (CHO-K1/hPDL1; MDA-MB-231) (human, UniProt Q9NZQ7 19-290); assay: FACS, CHO-K1/hPDL1 cells (Experiment 2)
T6 construct: whole, on cells

[7] = biological target: T6, human PD-L1 on cells (CHO-K1/hPDL1; …); assay: competition FACS: biotinylated PD-1 to CHO-K1/hPDL1 cells (Experiment 2)

T4 sequence (Q9NZQ7 19-290): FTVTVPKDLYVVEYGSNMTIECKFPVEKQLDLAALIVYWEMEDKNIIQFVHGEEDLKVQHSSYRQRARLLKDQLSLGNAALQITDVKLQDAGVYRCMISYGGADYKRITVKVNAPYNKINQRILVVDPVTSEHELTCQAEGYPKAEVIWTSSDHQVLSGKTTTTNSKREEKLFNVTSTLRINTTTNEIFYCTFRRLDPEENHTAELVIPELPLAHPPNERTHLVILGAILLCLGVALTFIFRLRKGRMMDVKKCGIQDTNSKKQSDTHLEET
T6 sequence (Q9NZQ7 19-290): as above
T5 sequence (P16410 36-223): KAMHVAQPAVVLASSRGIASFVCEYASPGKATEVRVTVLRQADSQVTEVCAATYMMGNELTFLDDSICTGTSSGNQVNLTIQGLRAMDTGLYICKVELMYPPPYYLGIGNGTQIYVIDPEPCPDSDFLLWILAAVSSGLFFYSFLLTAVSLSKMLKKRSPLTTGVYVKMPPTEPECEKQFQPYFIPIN
T3 sequence (Q07011 24-255): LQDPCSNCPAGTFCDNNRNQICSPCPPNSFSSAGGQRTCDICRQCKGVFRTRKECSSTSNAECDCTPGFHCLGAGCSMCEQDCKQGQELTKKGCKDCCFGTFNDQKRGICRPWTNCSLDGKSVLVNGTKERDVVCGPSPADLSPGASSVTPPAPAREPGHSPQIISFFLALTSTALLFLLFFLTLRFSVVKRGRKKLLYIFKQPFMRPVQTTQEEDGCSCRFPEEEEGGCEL

B1: PR000940, anti-BCMA HCAb antibody, clone 1005P10H8 (antibody, human IgG1, V domains shown)
VH: EVQLLESGGGLVQPGGSLRLSCAASGFTFSSYAMIWVRQAPGKGLEWVSGISESGGSTYYADSVKGRFTISRDNSKNTLYLQMNSLRAEDTAVYFCVKDLDDILTGYYKDYWGQGTLVTVSS
notes: Heavy-chain-only antibody (HCAb), human IgG1 Fc, no light chain
EC50 (human BCMA): 1.85 nM
Maximum MFI (human BCMA): 91000
Kd [1]: 0.152 nM
koff [1]: 6.09e-05 s⁻¹
kon [1]: 401000 M⁻¹ s⁻¹

B2: PR003551, PD-L1×4-1BB bispecific antibody molecule of IgG-VH tetravalent symmetric structure (bispecific antibody)
light: DIQMTQSPSTLSASVGDRVTVTCRASQSIYIWLAWYQQKPGKAPNLLIYKASSLETGVPSRFSGSGSGTEFTLTISSLQPDDFATYYCQQYYGSSRTFGQGTKVEIKRTVAAPSVFIFPPSDEQLKSGTASVVCLLNNFYPREAKVQWKVDNALQSGNSQESVTEQDSKDSTYSLSSTLTLSKADYEKHKVYACEVTHQGLSSPVTKSFNRGEC
heavy: EVQLVESGGGLVQPGGSLRLSCAASGFTFSSYWMSWVRQAPGKGLEWVANIKQEGSEKYYVDSVKGRFTISRDNAKNSLYLQMNSLRAEDTAVYYCARDRAVAGAFDIWGQGTMVTVSSASTKGPSVFPLAPSSKSTSGGTAALGCLVKDYFPEPVTVSWNSGALTSGVHTFPAVLQSSGLYSLSSVVTVPSSSLGTQTYICNVNHKPSNTKVDKKVEPKSCDKTHTCPPCPAPEAAGGPSVFLFPPKPKDTLMISRTPEVTCVVVDVSHEDPEVKFNWYVDGVEVHNAKTKPREEQYNSTYRVVSVLTVLHQDWLNGKEYKCKVSNKALGAPIEKTISKAKGQPREPQVYTLPPSREEMTKNQVSLTCLVKGFYPSDIAVEWESNGQPENNYKTTPPVLDSDGSFFLYSKLTVDKSRWQQGNVFSCSVMHEALHNHYTQKSLSLSPGEPKSSDKTHTPPPPPRTEVQLLESGGGLVQPGGSLRLSCAASGFIFSNFAMTWVRQPPEKGLKWVSSINGSGFNTYYTDSVKGRFTISRDNSRNTLYLQMNRLTAEDTAVYFCAKEGSSETDDHYYNVDVWGQGTTVTVSS
notes: Structure 5; IgG PR000265, VH of PR001836 at C-terminus of heavy chain; linker H1_15-RT; human IgG1 (L234A, L235A, P329G)
EC50 [2]: 3.15 nM
Maximum MFI [2]: 1570 MFI
EC50 [3]: 1.29 nM
Maximum MFI [3]: 2150 MFI

B3: PR000404 (bispecific antibody, human IgG1, kappa)
chain 1: EVQLVESGGGLVQPGGSLRLSCAASGFTFSSYWMSWVRQAPGKGLEWVANIKQEGSEKYYVDSVKGRFTISRDNAKNSLYLQMNSLRAEDTAVYYCARDRAVAGAFDIWGQGTMVTVSSASTKGPSVFPLAPSSKSTSGGTAALGCLVKDYFPEPVTVSWNSGALTSGVHTFPAVLQSSGLYSLSSVVTVPSSSLGTQTYICNVNHKPSNTKVDKKVEPKSC
chain 2: not shown
notes: PD-L1×CTLA4, structure 1
EC50 [4]: 37.2 nM
Maximum MFI [4]: 1620 MFI
EC50 [5]: 26.9 nM
Maximum MFI [5]: 339 MFI
EC50 [6]: 0.78 nM
Maximum MFI [6]: 8100 MFI
IC50 [7]: 0.6 nM
Maximum inhibition rate (%) [7]: 81.1%

B4: PR000701, PD-L1×4-1BB bispecific antibody molecule of FIT-Ig structure (bispecific antibody, human IgG4 S228P, kappa)
chain 1: not shown
chain 2: B3 chain 1
chain 3: not shown
notes: FIT-Ig; Fab A of PR000265 (PD-L1), Fab B of PR000197 (4-1BB) close to Fc; no linker; human IgG4
EC50 [2]: 10.2 nM
Maximum MFI [2]: 1340 MFI
EC50 [3]: 1.72 nM
Maximum MFI [3]: 1710 MFI

Source: US20230322953A1 (HARBOUR BIOMED SHANGHAI, published 2023)
